Source: patent US20210324011A1 (University of Washington, published 2021)

Target: T1, DHF119_C6_anchor
T1 construct: hexamer: avi-tag, monomer of designed hexamer 3H22, (GGS)5 linker, C cap of DHF119; also called anchor DHF119_C6
T1 chain: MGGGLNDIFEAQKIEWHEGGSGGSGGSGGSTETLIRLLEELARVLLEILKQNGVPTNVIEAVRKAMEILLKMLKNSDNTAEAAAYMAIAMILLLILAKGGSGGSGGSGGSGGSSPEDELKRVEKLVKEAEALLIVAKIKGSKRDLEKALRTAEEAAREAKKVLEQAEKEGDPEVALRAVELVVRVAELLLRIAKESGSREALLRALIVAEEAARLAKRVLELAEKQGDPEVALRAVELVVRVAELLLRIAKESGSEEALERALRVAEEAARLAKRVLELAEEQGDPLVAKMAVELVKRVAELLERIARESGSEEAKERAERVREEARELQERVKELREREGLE
Experiment: TIRF microscopy over 30 minutes
Description: Filament Growth In Vitro. PEG-silane coated glass coverslips were attached to similarly-coated slides with strips of double-stick tape to make flow chambers. All incubations were at 25° C.
The background of the tif movies was subtracted using the software Fiji (29) with a ball radius of 5.0. The contrast was modified to reduce background noise to facilitate fiber identification. CellProfiler™ software (37) was used to identify and track fiber through the different time frames. The output files from CellProfiler™ provided the Major axis length for every fiber through all the movie.

| Binder | binding result |
| --- | --- |
| DHF119-GFP (designed binder, not shown: green fluorescent protein) MGPEDELKRVEKLVKEAEALLIVAKIKGSKRDLEKALRTAEEAAREAVKVLVQALLEGDPEVALRAVELVVRVAELLLRIAKESGSREALLRALIVAEEAAKLAKMVLELAEKQGDPEVALRAVELVVRVAELLLRIAKESGSEEALERALRVAEEAARLAKRVLELAEEQGDPLVAKMAVELVKRVAELLERIARESGSEEAKERAERVREEARELQERVKELREREGLE | binds |

Target: T1, DHF119_C6_anchor
Experiment: anchor on streptavidin-coated magnetic beads, microscopy
Description: We sought to replicate this mechanism of control by designing multimeric anchor constructs, with multiple monomeric subunits held close to the relative orientations in the corresponding filaments by a fusion to designed homo-oligomers with the appropriate geometry (FIG. 14; one of the interaction interfaces is eliminated to restrict fiber growth in one direction). […] To study the kinetics of filament formation in vitro in more detail, we attached the anchors to glass slides, added monomers fused to yellow fluorescent protein (YFP) and monitored fiber formation by total internal reflection (TIRF) microscopy. The anchors seeded the rapid growth of multiple micron length fibers over 30 minutes (FIG. 4C; for analysis of growth kinetics of a second fiber see FIG. 15).

| Binder | binding result |
| --- | --- |
| DHF119 (designed binder, vector pET28b; forms a homo-polymer; cryoEM PDB 6E9Z) MGPEDELKRVEKLVKEAEALLIVAKIKGSKRDLEKALRTAEEAAREAVKVLVQALLEGDPEVALRAVELVVRVAELLLRIAKESGSREALLRALIVAEEAAKLAKMVLELAEKQGDPEVALRAVELVVRVAELLLRIAKESGSEEALERALRVAEEAARLAKRVLELAEEQGDPLVAKMAVELVKRVAELLERIARESGSEEAKERAERVREEARELQERVKELREREGLE | binds |

Target: the molecule itself
Experiment: fluorescence microscopy in living E. coli (self-assembly)

| Binder | binding result |
| --- | --- |
| DHF58-GFP (designed binder, expressed in E. coli; not shown: green fluorescent protein) MELLRVVMLVKEAEELLTLAVIKGSEDDLQKALRTAVEAAREAVKVLLQAVKRGDPEVALRAVELVVRVAELLLRIAKESGSELALKMALLVAEEAARLAKIVLELAEKQGDPEVALRAVELVVRVAELLLRIAKESGSEEALERALRVAEEAARLAKRVLELAEKQGDPEVARRAVELVKRVAELLERIARESGSEEAKERAERVREEARELQERVKELREREGLE | binds |

Target: the molecule itself
Experiment: negative stain EM; 1 = filaments observed (self-assembly)
Description: The designs were expressed in Escherichia coli under the control of a T7 promoter and purified using immobilized metal affinity chromatography (IMAC). […] IMAC eluates were concentrated, and filament formation was monitored by negative stain electron microscopy (EM); insoluble designs were characterized by EM either directly in the initial insoluble fraction, or after solubilization in guanidine hydrochloride, IMAC, and subsequent removal of denaturant.
Negative Stain Electron Microscopy. Soluble fractions were concentrated and insoluble fractions were resuspended in buffer (25 mM Tris, 75 mM NaCl, pH 8) for EM screening. A drop of 6 μL (1 μl sample instantly diluted with 5 μl of buffer) was applied on negatively glow discharged, carbon-coated 200-mesh copper grids (Ted Pella, Inc.), washed with Milli-Q™ Water and stained using 0.75% uranyl formate as described previously (28). The screening was performed on either a 120 kV Tecnai Spirit™ T12 transmission electron microscope (FEI, Hillsboro, Oreg.) or a 100 kV Morgagni M268 transmission electron microscope (FEI, Hillsboro, Oreg.). Images were recorded on a bottom mount Teitz CMOS™ 4 k camera system. The contrast of the images was enhanced in the Fiji software (29) for clarity.

| Binder | binding result |
| --- | --- |
| DHF25 (designed binder, vector pCDB24 (SUMO fusion); forms a homo-polymer) ARVVLKRVEKLVKEAETLLLVAIMKGSEEDLEKALRTAEEAAREAKKVLVLAVVVGDPEVALRAVELVVRVAELLLLIAIISGSEEALERALRVAEEAARLAKRVLELAENQGDPEVALRAVELVVRVAELLLMIAKVSGSEEALERALRVAEEAARLAKRVLELAEKQGDPEVARRAVELVKRVAELLERIARESGSEEAKERAERVREEALQLQARVMNLREREG | binds |
| DHF91 (designed binder, vector pET28b; forms a homo-polymer; cryoEM PDB 6E9X) MGDERRELEKVAVKAIMAAMLGNTDEVREQLQRALEIARESGTLLAVVLALEVVARVAIEAARKGNTDAVREALEVALEIARESGTKVAVVLALEVVARVAIEAARRGNVLAVILALEVALEIARESGTEEAALLAVEVVVRVSDEAKKQGNAVAVAVAEQVAKKILE | binds |
| DHF8 (designed binder, vector pET28b; forms a homo-polymer) MGLELSLVINLVLLANLLHLQAMMKGSSEDLEKALRTAEEAAREAKKVLEQAEKNGDPEVALRAVELVVIVAITLLLIAISSGSEEALERALRVAEEAARLAKRVLELAEKAGDPEVALRAVELVVRVAELLLRIAKESGSEEALERALRVAEEAARLAKRVLELAEKQGDPEVARRAVELVKRVAELLERIARESGSEEAKERAERVREEARELQERVKELREREGLE | binds |
| DHF77 (designed binder, vector pET28b; forms a homo-polymer) MGDSMKLVMLLLKKAVTLAKLNNDDMVALEIERAAKQIVLALAVNKSDEMAKVMLALAKAVLLAAKNNDDEVAREIARAAAEIVEALKENNSDEMAKVMLALAKAVLLAAKNNDDEVAREIARAAAEIVEALRENNSDEMAKKMLELAKRVLDAAKNNDDETAREIARQAAEEVEADRENLE | binds |
| DHF82 (designed binder, vector pET28b; forms a homo-polymer) MGPEEILESAKESLERAREASEAGLELVFRLAAEVALELAKRLVEQAKKEGDPELVLEAAKVALRVAELAAKNGDKEVFKKAAESALEVAKRLVEVASKEGDPELVLEAAKVALRVAELAAKNGDKEVFKKAAESALEVAKRLVEVASKEGDPTLVIMALIVAEEVIKLASKQGDELVMLKAVETAKEVKEEAMRVMLEKGLE | binds |
| DHF9 (designed binder, vector pET28b; forms a homo-polymer) MGLILELAKLSLERARLASEAGDRVEFKIAAEKALLLAKVLVLQAKKEGDPELVLEAAKVALRVAELAAKNGDKEVFKKAAESALEVAKRLVEVASKEGDPELVLEAAKVALRVAELAAKNGDKEVFKKAAESALEVAKRLVEVASKEGDPELVEEAAKVAEEVRKLAKKQGDEEVYEKARETAREVKEELKRVREEKGDLE | binds |
| DHF17 (designed binder, vector pET28b; forms a homo-polymer) MGHHHHHHSSGSSEKEELRERLVEIVVALAKAKGDDTELAREAAREAFELVREAAERAGIDSSMVLILAIQLILEVVANAAKEGYDISLAALAAAEAFKRVAEAAKRAGITSSMVLILAIRLIKEVVENAQREGYDISLAALAAAEAFKRVAEAAKRAGITSSMTLMRAIEEIRKRVEEAQREGNDISEAARQAAEEFIIKAVVLKARGDV | binds |
| DHF62 (designed binder, vector pET28b; forms a homo-polymer) MGIVLVIESLEAEVRLEKAKVLSVLARVRGDLKELAEALIEEARAVQELARVACEKGNSEEAERASEKAQRVLEEARKVSEEAREQGDDEVLALALIAIALAVLALAEVACCRGNSEEAERASEKAQRVLEEARKVSEEAREQGDDEVLALALIAIALAVLALAEVACCRGNKEEAERAYEDARRVEEEARKVKESAEEQGDSEVKRLAEEAEQLAREARRHVQECRGLE | binds |
| DHF16 (designed binder, vector pET28b; forms a homo-polymer) MGQILMKAKLSLVKAAEASLSGDELEFRIAAETALVLAKLLVLQAKKKGDPELVLEAAKVALRVAELAAKNGDKEVFKKAAESALEVAKRLVEVASKEGDPELVLEAAKVALRVAELAAKNGDKEVFKKAAESALEVAKRLVEVASKEGDPELVEEAAKVAEEVRKLAKKQGDEEVYEKARETAREVKEELKRVREEKGLE | binds |
| DHF107 (designed binder, vector pET28b; forms a homo-polymer) MGPEEILERAKESLERAREASERGDEMEFRIAAQKALELARQLVLQALAEGDPELVLEAAKVALRVAELAAKNGDKEVFKKAAESALEVAKVLVLVASKEGKPELVLEAAKVALRVAVLAAMNGDKEVFKKAAESALEVAKRLVEVASKEGDPELVLEAAKVAEKVRVLAAVQGDEEVYEKARETAREVKEELKRVMEEKGLE | binds |
| DHF20 (designed binder, vector pCDB24 (SUMO fusion); forms a homo-polymer) MDEMKARLLIERAKEAAERAQEAAERTGDPLVRLLAEMLKRLAQEAAEEVKRDPSSSDVNEALKLIVEAIEAAVRALEAAERTGDPEVRELASELVRLAVEAAEEVQRNPSSSDVNEALKLIVEAIEAAVRALEAAERTGDPRVRELARELVRLAVEAAEEVQRNPSSVEVALALLKIVKAIEEAVESLREAEESGDPMKRLEAALRVREAVERAEEVQRN | binds |
| DHF76 (designed binder, vector pET28b; forms a homo-polymer) MGLEKEVLRVKLVKICVLLARLKGDDTEEAREAARQAFEVVRLAAELAGIDSSEVLELAIRLIKECVENAQREGYDISLACMLAALAFKRVAEAAKRAGITSSEVLELAIRLIKECVENAQRDGYDISEACRAAAEAFKRVAEAAKRAGITSSETLKRAIEEIRKRVEEAQREGNEISEACRQAAEEFRKKAEELKRLE | binds |
| DHF78 (designed binder, vector pET28b; forms a homo-polymer) MGELVLLVAKLALAVAVQASALGDEEVFRKAAEKALELAKRLVELAKLIGDPELVLEAAKVALEVAELAAKNGDKEVFKKAAESALEVAKRLVEVASKEGDPELVLEAAKVALRVAELAAKNGDKEVFKKAAESALEVAKRLVEVASKEGDPELVEEAAKVAEEVRKLAKKQGDEEVYEKARETAREVKEELKRVREEKGLE | binds |
